Ends that are not written are not given here.
Columns and labels:
SR-B1 = target: T1, SR-B1 (Rattus norvegicus, UniProt P97943); assay: SR-BI mediated cholesterol efflux; assay type: cell-based; details: for SR-BI Mediated Efflux % Per 4 h: minus blank; for cholesterol efflux from the Fu5AH cells (SRB1 pathway): result in words
T1 construct: endogenous in cells; host or cells: Fu5AH rat hepatoma cells
T1 sequence (P97943 1-509): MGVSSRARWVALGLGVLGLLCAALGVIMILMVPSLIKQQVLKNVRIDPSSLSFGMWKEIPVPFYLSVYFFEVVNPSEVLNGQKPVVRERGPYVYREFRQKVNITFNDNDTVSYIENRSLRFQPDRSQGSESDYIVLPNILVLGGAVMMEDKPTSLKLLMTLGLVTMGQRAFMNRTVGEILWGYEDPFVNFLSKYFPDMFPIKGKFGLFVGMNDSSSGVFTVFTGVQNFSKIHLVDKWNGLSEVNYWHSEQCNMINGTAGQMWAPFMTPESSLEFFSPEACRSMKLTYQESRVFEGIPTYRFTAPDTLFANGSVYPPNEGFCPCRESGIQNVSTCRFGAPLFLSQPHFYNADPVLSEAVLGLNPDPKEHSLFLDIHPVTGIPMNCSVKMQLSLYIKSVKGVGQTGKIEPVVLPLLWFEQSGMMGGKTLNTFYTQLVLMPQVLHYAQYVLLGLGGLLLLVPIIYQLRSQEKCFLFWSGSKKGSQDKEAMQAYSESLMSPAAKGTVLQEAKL
From the text: (§1) The methods employed in this study have been described in U.S. Pat. Nos. 7,029,863, 7,060,452, U.S. Patent Application Publication No. 2005/0191715, and in Moya et al., Arteriosclerosis & Thrombosis 1994:14:1056-1065 and Liu et al., J. Biol. Chem., 2003:278(44), 42976-42984. SR-B1 mediated cholesterol efflux was examined in FU5AH rat hepatoma cells and ABCA1 mediated cholesterol efflux was examined in J774 mouse macrophage cells as described in these references.
(§2) J774 macrophages and Fu5AH […] in culture were used to determine the specificity of SEQ ID NO: 602 to efflux cholesterol by the ABCA-I or SRBI pathways using the methods of de la Llera Moya, M., V., et al. “A cell culture system for screening human serum for ability to promote cellular cholesterol efflux. Relations between serum components and efflux, esterification, and transfer.” Arterioscler. Thromb. 14: 1056-1065 (1994). Anti-inflammatory properties were evaluated by determination of inhibition of expression of activated CD11B human monocytes and suppression of cytokine-induced vascular cell adhesion molecule-1, V-CAM, expression in human coronary artery endothelial cells (HCAECs).

ABCA1 = target: T2, ABCA1 (Mus musculus, UniProt P41233); assay: ABCA1 mediated cholesterol efflux; assay type: cell-based; design: +ABCA1 Cells / −ABCA1 Cells: unit not given here; details: for cholesterol efflux via the ABCA-I pathway: Example 17, J774 macrophages; for +ABCA1 Cells / −ABCA1 Cells / ABCA1 Mediated Efflux % Per 4 h: minus blank; for dose dependence of cholesterol efflux from cells containing the ABCA1 pathway (FIG. 3): range of 5 ug/ml to 30 ug/ml; for efflux of cholesterol from J774 macrophage cells (ABCA1 pathway): result in words
T2 construct: endogenous in cells; host or cells: J774 mouse macrophage cells
T2 sequence (P41233 whole entry): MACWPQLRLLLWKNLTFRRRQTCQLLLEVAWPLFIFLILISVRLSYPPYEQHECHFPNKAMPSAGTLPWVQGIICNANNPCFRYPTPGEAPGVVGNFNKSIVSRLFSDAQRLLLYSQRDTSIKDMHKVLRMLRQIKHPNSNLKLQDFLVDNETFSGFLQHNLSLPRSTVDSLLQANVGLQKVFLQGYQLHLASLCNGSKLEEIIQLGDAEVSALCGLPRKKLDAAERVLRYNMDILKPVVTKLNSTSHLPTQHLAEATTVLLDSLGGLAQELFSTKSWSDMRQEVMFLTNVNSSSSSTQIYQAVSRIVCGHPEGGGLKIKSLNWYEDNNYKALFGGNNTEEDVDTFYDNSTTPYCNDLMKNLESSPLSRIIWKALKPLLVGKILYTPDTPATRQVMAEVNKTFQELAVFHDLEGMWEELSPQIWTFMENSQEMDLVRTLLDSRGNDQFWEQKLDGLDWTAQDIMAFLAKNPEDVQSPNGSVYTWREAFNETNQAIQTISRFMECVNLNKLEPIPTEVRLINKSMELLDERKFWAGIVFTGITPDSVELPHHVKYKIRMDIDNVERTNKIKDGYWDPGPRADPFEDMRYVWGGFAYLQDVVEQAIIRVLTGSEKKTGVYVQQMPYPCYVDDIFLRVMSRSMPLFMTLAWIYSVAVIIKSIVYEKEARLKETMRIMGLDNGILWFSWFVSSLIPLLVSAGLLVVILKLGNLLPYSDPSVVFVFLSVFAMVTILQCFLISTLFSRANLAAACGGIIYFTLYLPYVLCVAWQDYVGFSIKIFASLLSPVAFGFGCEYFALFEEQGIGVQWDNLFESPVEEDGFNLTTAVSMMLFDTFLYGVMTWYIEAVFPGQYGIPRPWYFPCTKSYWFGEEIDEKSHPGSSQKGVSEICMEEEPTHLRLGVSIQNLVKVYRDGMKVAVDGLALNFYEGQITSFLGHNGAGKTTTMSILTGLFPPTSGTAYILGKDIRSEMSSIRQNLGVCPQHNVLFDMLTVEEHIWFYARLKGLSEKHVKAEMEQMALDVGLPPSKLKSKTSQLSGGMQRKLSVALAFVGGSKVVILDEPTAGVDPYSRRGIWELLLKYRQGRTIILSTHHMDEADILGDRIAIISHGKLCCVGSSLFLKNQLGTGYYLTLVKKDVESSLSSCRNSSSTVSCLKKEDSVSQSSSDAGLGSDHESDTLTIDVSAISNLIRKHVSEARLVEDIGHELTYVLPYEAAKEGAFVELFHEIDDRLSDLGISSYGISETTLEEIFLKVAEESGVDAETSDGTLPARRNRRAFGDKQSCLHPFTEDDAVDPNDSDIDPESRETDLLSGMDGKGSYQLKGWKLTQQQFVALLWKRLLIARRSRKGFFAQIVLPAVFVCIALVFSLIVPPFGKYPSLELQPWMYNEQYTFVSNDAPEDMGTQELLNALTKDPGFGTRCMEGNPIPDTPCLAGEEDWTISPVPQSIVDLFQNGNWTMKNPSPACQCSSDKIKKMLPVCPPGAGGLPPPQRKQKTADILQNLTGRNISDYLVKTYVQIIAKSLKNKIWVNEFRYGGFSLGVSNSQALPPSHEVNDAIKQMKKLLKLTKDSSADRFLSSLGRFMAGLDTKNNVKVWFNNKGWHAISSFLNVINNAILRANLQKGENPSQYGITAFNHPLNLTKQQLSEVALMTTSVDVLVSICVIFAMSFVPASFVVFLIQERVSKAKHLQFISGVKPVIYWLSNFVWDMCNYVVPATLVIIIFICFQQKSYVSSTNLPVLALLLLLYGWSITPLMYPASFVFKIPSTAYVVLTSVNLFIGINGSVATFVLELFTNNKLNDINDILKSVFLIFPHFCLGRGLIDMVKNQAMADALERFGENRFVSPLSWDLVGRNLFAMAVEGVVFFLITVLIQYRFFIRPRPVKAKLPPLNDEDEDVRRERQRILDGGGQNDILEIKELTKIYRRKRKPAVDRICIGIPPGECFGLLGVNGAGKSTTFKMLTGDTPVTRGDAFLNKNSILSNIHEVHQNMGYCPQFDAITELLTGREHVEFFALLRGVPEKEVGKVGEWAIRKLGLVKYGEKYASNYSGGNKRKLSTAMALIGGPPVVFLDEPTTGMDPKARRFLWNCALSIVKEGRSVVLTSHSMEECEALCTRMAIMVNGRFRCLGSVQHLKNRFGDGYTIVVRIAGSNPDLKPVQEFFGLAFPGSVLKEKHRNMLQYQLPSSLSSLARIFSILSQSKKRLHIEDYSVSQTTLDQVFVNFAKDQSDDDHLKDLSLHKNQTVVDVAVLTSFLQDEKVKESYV
From the text: as §1, §2

CD11b = CD11b expression in stimulated monocytes by flow cytometry; assay type: cell-based, human; details: for PMA-induced CD11b expression in human monocytes: 20 μg/ml, PMA 1 μmol/L, FIG. 2
Experimental: Monocyte Isolation Peripheral whole blood (PWB) was drawn from healthy consenting individuals into syringes containing sodium citrate (final concentration—19.2 mM). Resting human monocytes were isolated from PWB by density centrifugation with Lymphoprep (Axis Shield). Mononuclear cells (MNCs) were collected and monocytes were further separated to purity using the Dynal negative isolation kit (Invitrogen). Monocytes were resuspended in phosphate buffered saline (PBS) and cell number was determined counting cell suspension on an automated hematology analyzer (Sysmex, KX-21N, USA).
Flow Cytometry 100 μL of monocytes were stimulated with either 1 μmol/L phorbol-myristate-acetate (PMA) or 1 μg/ml lipopolysaccharide (LPS) (Sigma, Australia) in the presence or absence of apoA-1 (20 μg/ml), or 20 μg/ml of the test peptide SEQ ID NO: 602 (Ac-[…]NH2), each tested separately. The cells were incubated with the FITC conjugated antibody to either the active epitope of CD11b (eBiosciences, USA, Clone CBRM1/5) or total CD11b (Serotec, USA, Clone ICRF44) for 15 min at 37° C. Cells were then fixed with 4% para-formaldehyde. Samples were controlled for by using the appropriately matched isotype matched negative control (FITC-anti-mouse IgG) (Serotec, USA, Clone W3/25). CD11b expression was measured by flow cytometry using FACS Calibur (Becton Dickinson). Analysis was conducted using the Cell Quest Pro software.
Statistical Analysis Values are presented as the mean±SD or percentage of control±SD. FACS results were analyzed for statistical significance using one-way ANOVA followed by Bonferroni post-hoc test. Significance was accepted at P<0.05.
as §2

[1] = test system: vascular cell adhesion molecule-1; assay: Cytokine-induced V-CAM expression in human coronary artery endothelial cells; assay type: cell-based; details: initial data; p<0.05
Experimental: as §2

[2] = test system: ApoE knockout and LDL receptor knockout mice; assay: Aortic atherosclerosis in ApoE and LDL receptor knockout mice (Example 14); assay type: in vivo, mouse; details: 30 mg/kg ip three times per week, 4-5 or 8-10 weeks
Experimental: The mice receive 3 injections per week for either 4-6 or 8-10 weeks. After the completion of the injection, the amount of hardening of the arteries or atherosclerosis is determined in the control injected animals and peptide injected animals to determine if the injections of the synthetic peptide decreased development of atherosclerosis.
For infusion studies B and C, mice are injected ip with either placebo or a synthetic peptide of the present invention (30 mg/kg) three times per week for either 4 to 5 weeks (Infusion Study B) or 8 to 10 weeks (Infusion Study C). Blood for lipid and lipoprotein analyses is obtained at the beginning of the study (day 0) and every two weeks after placebo/peptide injection and at the completion of the study. At the completion of the study (4 to 5 weeks for Infusion Study B and 8 to 10 weeks for Infusion Study C), the animals are sacrificed, organs harvested for analyses of cholesterol content and for aortic atherosclerosis.
No more than 300 ul blood every two weeks is obtained from each mouse. • 4) At the end of Infusion Study B and C all mice are sacrificed by cervical dislocation following isoflurane anesthesia and organs are harvested for analyses of cholesterol as well as aortic atherosclerosis. Before intraperitoneal injections, brief inhaled analgesia is obtained by isoflurane utilizing the E-Z Rodent Anesthesia System in the procedure room. […]

[3] = test system: HeLa cells stably transfected with human ABCA1 cDNA; assay: Cholesterol and phospholipid efflux from ABCA1 cells; assay type: cell-based
Experimental: HeLa cells stably transfected with human ABCA1 cDNA (ABCA1 cells) and HeLa cells transfected with only a hygromycin-resistant control plasmid (control cells) are produced and grown in α-modified Eagle's medium (aMEM) plus 10% fetal calf serum, as described by Remaley et al. (Biochem. Biophys. Res. Commun. 280:818-823, 2001). […] Thromb. Vasc. Biol. 17:1813-1821, 1997). Percentage efflux is calculated after subtracting the radioactive counts in the blank media (aMEM plus 1 mg/ml of BSA), and expressed as the percent of total radioactive counts removed from the cells during the efflux period.
ABCA1 cells are used to assess the ability of apoA-I and synthetic peptides to efflux lipid from cells. […] The peptides of the present invention efflux approximately 2- to 4-fold more cholesterol and phospholipid from ABCA1 cells than from control cells. Both the peptides of the present invention and apoA-I began to show saturation for lipid efflux at approximately the same protein concentration of 10 μg/ml. The peptides of the present invention remove more cholesterol and phospholipids from control cells than apoA-I.
Cholesterol efflux from ABCA1 cells to apoA-I is first detectable after 2 hours and increases throughout the 30 hour efflux period. […]

[4] = test system: HeLa cells transfected with only a hygromycin-resistant control plasmid; assay: Cholesterol and phospholipid efflux from control cells; assay type: cell-based, human; details: result in words
Experimental: HeLa cells stably transfected with human ABCA1 cDNA (ABCA1 cells) and HeLa cells transfected with only a hygromycin-resistant control plasmid (control cells) are produced and grown in α-modified Eagle's medium (aMEM) plus 10% fetal calf serum, as described by Remaley et al. (Biochem. Biophys. Res. Commun. 280:818-823, 2001). Cholesterol and phospholipid efflux is performed for 18 hours on noncholesterol-loaded cells radiolabeled with either cholesterol or choline (Remaley et al., Arterioscler. Thromb. Vasc. Biol. 17:1813-1821, 1997). Percentage efflux is calculated after subtracting the radioactive counts in the blank media (aMEM plus 1 mg/ml of BSA), and expressed as the percent of total radioactive counts removed from the cells during the efflux period.
ABCA1 cells are used to assess the ability of apoA-I and synthetic peptides to efflux lipid from cells. […] The peptides of the present invention efflux approximately 2- to 4-fold more cholesterol and phospholipid from ABCA1 cells than from control cells. Both the peptides of the present invention and apoA-I began to show saturation for lipid efflux at approximately the same protein concentration of 10 μg/ml. The peptides of the present invention remove more cholesterol and phospholipids from control cells than apoA-I. […]

[5] = FU5AH rat hepatoma cells, peptides at 30 μg/ml
[6] = J774 cells, peptides at 30 μg/ml
[7] = J774 cells, peptides at 30 μg/ml, listed as 5
[8] = J774 mouse macrophage cells, peptides at 30 μg/ml
[9] = J774 cells, peptides at 30 μg/ml, listed as 3
[10] = controls: 2% human serum pool, Apo A-I @ 20 μg/ml

## Ac-Ser Pro Leu Leu Glu Ser Ala Lys Val Ser Ala Leu Ser Ala Leu Glu Glu Ala Thr Lys Lys Lys Leu Ser Pro Leu Leu Glu Ser Phe Lys Val Ser Phe Leu Ser Ala Leu Glu Glu Tyr Thr Lys Lys Leu Asn Thr Gln-NH2 (Ac-SPLLESAKVSALSALEEATKKKLSPLLESFKVSFLSALEEYTKKLNTQ-NH2) [Peptide 1]
SR-B1; Example 17, Fu5AH cells
  SRB-1 pathway activity (cholesterol efflux): no SRB-1 pathway activity
SR-B1; [5]
  SR-BI Mediated Efflux % Per 4 h: 0.15 % Per 4 h
SR-B1; FU5AH rat hepatoma cells, peptides at 30 μg/ml, listed as 5
  SR-BI Mediated Efflux % Per 4 h: 0.25 % Per 4 h
SR-B1
  cholesterol efflux from the Fu5AH cells (SRB1 pathway): negligible or no effect
ABCA1
  cholesterol efflux via the ABCA-I pathway: 15.34%+2.57
  dose dependence of cholesterol efflux from cells containing the ABCA1 pathway (FIG. 3): dose dependent stimulation
  efflux of cholesterol from J774 macrophage cells (ABCA1 pathway): stimulated efflux of cholesterol
ABCA1; [6]
  +ABCA1 Cells: 20.338 ± 0.136
  −ABCA1 Cells: 1.624 ± 0.126
ABCA1; [7]
  +ABCA1 Cells: 15.718 ± 0.123
  −ABCA1 Cells: 1.215 ± 0.288
ABCA1; [8]
  ABCA1 Mediated Efflux % Per 4 h: 18.71 % Per 4 h
ABCA1; J774 mouse macrophage cells, peptides at 30 μg/ml, listed as 5
  ABCA1 Mediated Efflux % Per 4 h: 14.50 % Per 4 h
CD11b
  PMA-induced CD11b expression in human monocytes: decrease
CD11b; listed as SEQ ID NO: 602
  PMA-induced CD11b expression in human monocytes: significantly reduced
CD11b; Example 17, p=<0.01, comparable to apo A-I
  Inhibition of expression of CD11B on human monocytes: statistically significant
[1]
  V-CAM-1 mRNA levels in HCAECs: decreases
[2]
  aortic atherosclerosis compared to controls: decrease aortic atherosclerosis

## Ser Pro Leu Ser Asp Glu Lcu Arg Gln Arg Lcu Ala Ala Arg Lcu Glu Ala Leu Lys Glu Asn Lys Leu Ser Pro Leu Leu Glu Ser Phe Lys Val Ser Phe Leu Ser Ala Leu Glu Glu Tyr Thr Lys Lys Leu Asn Thr Gln (SPLSDELRQRLAARLEALKENKLSPLLESFKVSFLSALEEYTKKLNTQ) [Peptide 2]
SR-B1; [5]
  SR-BI Mediated Efflux % Per 4 h: 0.16 % Per 4 h
SR-B1
  cholesterol efflux from the Fu5AH cells (SRB1 pathway): negligible or no effect
ABCA1; [6]
  +ABCA1 Cells: 14.283 ± 0.545
  −ABCA1 Cells: 1.205 ± 0.211
ABCA1; [9]
  +ABCA1 Cells: 13.447 ± 0.549
  −ABCA1 Cells: 1.306 ± 0.261
ABCA1; [8]
  ABCA1 Mediated Efflux % Per 4 h: 13.08 % Per 4 h
ABCA1; J774 mouse macrophage cells, peptides at 30 μg/ml, listed as 3
  ABCA1 Mediated Efflux % Per 4 h: 12.14 % Per 4 h
ABCA1
  dose dependence of cholesterol efflux from cells containing the ABCA1 pathway (FIG. 3): dose dependent stimulation
  efflux of cholesterol from J774 macrophage cells (ABCA1 pathway): stimulated efflux of cholesterol

## apolipoprotein A-I [Apo A-I]
SR-B1; [10]
  SR-BI Mediated Efflux % Per 4 h: 0.26 % Per 4 h
ABCA1
  cholesterol efflux via the ABCA-I pathway: 15.99%+2.07
ABCA1; [10]
  +ABCA1 Cells: 20.682 ± 0.724
  ABCA1 Mediated Efflux % Per 4 h: 18.97 % Per 4 h
  −ABCA1 Cells: 1.713 ± 0.409
CD11b
  PMA-induced CD11b expression in human monocytes: decrease
CD11b; listed as ApoA1
  PMA-induced CD11b expression in human monocytes: significantly reduced
[3]
  protein concentration at which lipid efflux begins to show saturation: ~10 µg/mL
[3]; 30 hour efflux period
  time at which cholesterol efflux from ABCA1 cells is first detectable: 2 h
[4]
  cholesterol efflux from control cells (time course): no significant increase above background

## SPLLESAKVSALSALEEATKKKLSPLLESFKVSFLSALEEYTKKLNTQ [Peptide 4]
SR-B1; [5]
  SR-BI Mediated Efflux % Per 4 h: 0.10 % Per 4 h
SR-B1
  cholesterol efflux from the Fu5AH cells (SRB1 pathway): negligible or no effect
ABCA1; [6]
  +ABCA1 Cells: 12.420 ± 1.019
  −ABCA1 Cells: 1.224 ± 0.121
ABCA1; [8]
  ABCA1 Mediated Efflux % Per 4 h: 11.20 % Per 4 h
ABCA1
  dose dependence of cholesterol efflux from cells containing the ABCA1 pathway (FIG. 3): dose dependent stimulation
  efflux of cholesterol from J774 macrophage cells (ABCA1 pathway): stimulated efflux of cholesterol
[2]
  aortic atherosclerosis compared to controls: decrease aortic atherosclerosis
